Data from article PMC5382158 (Frontiers in Cellular and Infection Microbiology, 2017).

T1: Rv2617c-T25 (M. tuberculosis, UniProt I6XER9 1-146)
T1 sequence: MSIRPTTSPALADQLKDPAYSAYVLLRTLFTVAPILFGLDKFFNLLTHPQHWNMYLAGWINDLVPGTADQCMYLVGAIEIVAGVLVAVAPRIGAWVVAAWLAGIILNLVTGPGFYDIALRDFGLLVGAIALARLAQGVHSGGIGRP


Columns and labels:
[1] = molecular target: NarI-T25 (M. tuberculosis); assay: two-hybrid
[2] = molecular target: T1, Rv2617c-T25; assay: two-hybrid; conditions: partners not purified

| Molecule | β-galactosidase activity [1] [Miller units] | β-galactosidase activity [2] [Miller units] |
| --- | --- | --- |
| KdpF-T18 (peptide) | 1200 | – |
| MTTVDNIVGLVIAVALMAFLFAALLFPEKF [KdpF-T18] | – | 2030 |
